This assay deals with T1, ILT4-Fc (recombinant ILT4 receptor fused to the Fc part of a human IgG, R&D Biosystems) (human, UniProt Q8N423 22-458).
T1 construct: Bought reagent (R&D); also called ILT4/LILRB2/CD85d; not shown: Fc part of a human IgG
The assay is described as follows: dimer covalently coated on Bio-Plex beads, ILT4-Fc at 2 µg/ml, PE anti-human IgG, flow cytometry. The method, then: To test the binding to HLA-G receptors ILT2, ILT4, and KIR2DL4, 12 μg of dimers obtained according to example 2 were covalently coated on Bio-Plex-COOH polystyrene beads (Bio-Rad) according to the manufacturer's recommendations. Beads were then resuspended at a concentration of 2000 beads per 50 μl in 1× Luminex assay buffer (Interchim). Recombinant receptors fused to the Fc part of a human IgG (ILT2-Fc, ILT4-Fc, R&D Biosystems) were then added at 2 μg/ml. Beads and receptors were then incubated for 90 minutes in the dark on a shaker before wash twice with 200 μl of 1×PBS, 0.05% Tween. Beads were then resuspended in 50 μl of PBS Luminex assay Buffer containing 2 μl g/ml of Phycoerythrin-conjugated Goat anti Human IgG antibody (Sigma) for 30 minutes in the dark on a rotating shaker. Beads were then washed twice with 200 μl of 1×PBS, 0.05% Tween, and resuspended in 300 μl of 1×PBS.
Fluorescence, indicative of peptide recognition by the receptors was evaluated by flow cytometry performed on an Epics XL Cytometer (Beckman Coulter) using EXPO32 software (Beckman Coulter).
For orientation: Flow cytometry measures light scatter and fluorescence of single cells or particles in a stream.

T1 sequence (Q8N423 22-458 limits assumed): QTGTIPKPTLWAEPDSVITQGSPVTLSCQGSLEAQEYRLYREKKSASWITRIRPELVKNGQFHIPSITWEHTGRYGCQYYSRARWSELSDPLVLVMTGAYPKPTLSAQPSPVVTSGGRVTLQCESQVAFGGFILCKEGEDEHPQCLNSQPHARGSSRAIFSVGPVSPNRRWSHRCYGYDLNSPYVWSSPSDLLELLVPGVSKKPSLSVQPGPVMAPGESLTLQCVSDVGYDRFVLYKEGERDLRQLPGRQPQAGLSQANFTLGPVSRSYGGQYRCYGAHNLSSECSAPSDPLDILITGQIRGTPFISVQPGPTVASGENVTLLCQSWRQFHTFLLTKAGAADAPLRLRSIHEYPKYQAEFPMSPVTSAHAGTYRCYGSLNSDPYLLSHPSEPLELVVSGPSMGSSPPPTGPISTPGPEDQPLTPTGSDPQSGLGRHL

B1: (alpha1-alpha 3)×2 dimer of SEQ ID NO:4 (peptide)
chain: GSHSMRYFSAAVSRPGRGEPRFIAMGYVDDTQFVRFDSDSACPRMEPRAPWVEQEGPEYWEEETRNTKAHAQTDRMNLQTLRGYYNQSEADPPKTHVTHHPVFDYEATLRCWALGFYPAEIILTWQRDGEDQTQDVELVETRPAGDGTFQKWAAVVVPSGEEQRYTCHVQHEGLPEPLMLRWKQ
modifications: intrachain disulfide between cysteines 111 and 167; interchain disulfide bridge between Cysteine 42 of the two monomers
notes: Synthetic disulfide-linked homodimer; in the assay covalently coated on Bio-Plex-COOH polystyrene beads; also called (alpha 3-alpha1)×2; (alpha1-alpha 3)x2
B1: the binding result is “binds”.

The record behind these values is patent US20180194830A1 (COMMISSARIAT A L ENERGIE ATOMIQUE ET AUX ENERGIES …, published 2018).
